US20230381329A1, “Zwitterion Polymer-Drug Conjugates” (University of Utah Research Foundation, priority 2022, published 2023)
Read-outs that look alike come from different tables or passages of the source.

How the values were obtained:
[1] = target: T1, recombinant human (rHu) insulin (Homo sapiens, UniProt P01308); experiment: Insulin aggregation assay (transmittance at 540 nm, continuous agitation at 37° C.); assay type: physicochemical
T1 construct: Insulin is a 51-residue protein
Method: Insulin or calcitonin solutions were prepared in PBS at pH 7.4 at a final concentration of 1 mg/mL, and with and without the addition of 1.5 molar equivs of CB [7]-PMet for rHu insulin and 5 molar equivs for hCT. […] The plate was shaken continuously at 37° C. and absorbance readings at 540 nm were collected every 6 min the duration of the experiment as reported. Absorbance values were subsequently converted to transmittance. […]

[2] = target: T1, recombinant human (rHu) insulin; settings: CB[7] alone, already shown; cited from earlier work
[3] = test system: Chinese hamster ovary cells; settings: cited from earlier work
[4] = mice, cited from earlier work
[5] = target: N-terminal phenylalanine residue on insulin (Homo sapiens, UniProt P01308); settings: CB[7] macrocycle binding N-terminal phenylalanine of insulin; cited from earlier work
Sequence of N-terminal phenylalanine residue on insulin (P01308 25-54 limits assumed): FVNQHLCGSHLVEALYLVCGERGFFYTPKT
Sequence of N-terminal phenylalanine residue on insulin (P01308 90-110 partner limits assumed): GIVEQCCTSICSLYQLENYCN

Human calcitonin (hCT) = target: T2, Human calcitonin (hCT) (Homo sapiens, UniProt P01258); experiment: Calcitonin aggregation assay (transmittance at 540 nm, 37° C.); assay type: physicochemical; settings: for time stabilized against aggregation: with 5 molar equivs CB[7]-PMet^CM80, with agitation, 37° C.; for time stabilized against aggregation / aggregation behavior alone: FIG. 5C; for aggregation behavior alone: without CB[7]-PMet^CM80, PBS pH 7.4, 37° C.; for stabilization against aggregation: with CB[7]-PMet^CM80, FIG. 5C
T2 construct: made in house; host or cells: chemical peptide synthesis (on resin)
T2 sequence (P01258 85-116): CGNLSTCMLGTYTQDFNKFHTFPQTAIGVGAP
Method: Aggregation assay methods. Insulin aggregation assay. Insulin aggregation was assessed (Sluzky, V.; et al. Proc. Natl. Acad. Sci. U.S.A 1991, 88 (21), 9377-9381; and Webber, M. J.; et al. Proc. Natl. Acad. Sci. U.S.A 2016, 113 (50), 14189-14194). Insulin or calcitonin samples at pH 7.4 PBS and a final concentration of 1 mg/mL were prepared with and without the addition of 1.5 molar equivs of CB [7]-PMet. Samples were plated in a clear 96-well plate (Thermo Scientific Nunc) at a volume of 150 μL per well (n=5 wells/group) and sealed with an optically clear and thermally stable seal. The plate was immediately placed into a Tecan Infinite M200 plate reader and shaken continuously at 37° C. Absorbance readings at 540 nm were collected every 6 min the duration of the experiment as reported, and absorbance values were subsequently converted to transmittance.
Calcitonin aggregation assay. hCT and analogs were dissolved in PBS buffer, pH 7.4 and centrifuged at 3000 rpm for 3 min. The supernatant concentration was determined by nanodrop (6=1615 M^−1cm^−1 at 280 nm). hCT and analogs were prepared at a final concentration of 0.5 mg/mL with and without 5 eq of PMet^CM80-CB[7]. Samples were plated at 150 μL per well in a clear 96-well plate (Fisher Scientific Nunc) and sealed with optically clear and thermally stable sealing tape (VWR). The plate was immediately placed into the plate reader at 37° C. Absorbance readings at 540 nm were collected every 6 min with 60 s shaking between reads for […]. Absorbance values were subsequently converted to transmittance.
Aggregation assays. Peptide therapeutics were prepared (Meudom, R.; et al. Curr. Res. Chem. Biol. 2022, 2, 100013) and aggregation was assessed (Sluzky, V.; et al. Proc. Natl. Acad. Sci. U.S.A 1991, 88 (21), 9377-938; and Webber, M. J.; et al. Proc. Natl. Acad. Sci. U.S.A 2016, 113 (50), 14189-14194). Insulin or calcitonin solutions were prepared in PBS at pH 7.4 at a final concentration of 1 mg/mL, and with and without the addition of 1.5 molar equivs of CB [7]-PMet for rHu insulin and 5 molar equivs for hCT. Samples were plated in a clear 96-well plate (Thermo Scientific Nunc) at a volume of 150 μL per well (n=wells/group) and sealed with an optically clear and thermally stable seal. The plate was shaken continuously at 37° C. and absorbance readings at 540 nm were collected every 6 min the duration of the experiment as reported. Absorbance values were subsequently converted to transmittance.
Next, the stabilizing effects of CB[7]-PMet^CM80 on other aggregation-prone proteins was assessed. Human calcitonin (hCT, FIG. 5A) was selected as a model protein therapeutic. Since hCT lacks a terminal Phe for host-guest complexation, the N-terminal amine was selectively modified on-resin with a benzylic amine group using reductive amination chemistry (FIG. 5B). To optimize binding, two spacer lengths between the terminal amine and the benzyl ring were examined comprising either one or two methylene units (hCT A1 and A2, respectively). Aggregation behavior over 40 h was examined using the methods described herein, and with or without CB[7]-PMet^CM80. […] However, addition of CB[7]-PMet^CM80 stabilized hCT A2 for at least 40 h with agitation, while hCT A1 was stabilized for ca. 34 h.

T1 sequence (P01308 25-54 limits assumed): as the sequence (P01308 25-54 limits assumed) above

Question: Which “aggregation of rHu insulin alone” value ([1]; no additive, continuous agitation at 37° C., within the first few hours) does the source give for “rHu insulin: recombinant human insulin, SEQ ID NO: 1 and SEQ ID NO: 2 chains” here?
Answer: rapid aggregation

Question: Which “effect on rHu insulin stability” value [2] does the source give for cucurbit[7]uril [CB[7]] here?
Answer: no effect

Question: And the IC50 [3]?
Answer: 530 ± 20 µM

Question: And the tolerated dose ([4]; intravenous)?
Answer: up to 250 mg kg^−1

Question: What about the tolerated dose ([4]; oral) of the same substance?
Answer: ≤ 600 mg/kg

Question: What about the Ka [5] of the same substance?
Answer: 1.5e+06 M⁻¹

Question: Which “inhibition of rHu insulin aggregation under continuous agitation” value ([1]; 1 mg/mL insulin, PBS pH 7.4, 1.5 molar equivs additive, 37° C., 100 h, FIG. 3B) does the source give for “Poly-S-Carboxymethyl-L-Methionine Sulfonium Chloride Alkyne [PMetCM-Alk]” here?
Answer: no inhibition

Question: For “hCT A1: benzyl-functionalized human calcitonin with one methylene spacer between the terminal amine and the benzyl ring”, which “time stabilized against aggregation” value (Human calcitonin (hCT)) is on record?
Answer: ca. 34 h

Question: What about the aggregation behavior alone (Human calcitonin (hCT)) of the same substance?
Answer: rapid aggregation

Question: Which results are given for “hCT: Human calcitonin, SEQ ID NO: 3, H2N-CGNLSTCMLGTYTQDFNKFHTFPQTAIGVGAP”?
Answer: stabilization against aggregation (Human calcitonin (hCT)): not stabilized; aggregation behavior alone (Human calcitonin (hCT)): rapid aggregation

Question: Which “time stabilized against aggregation” value (Human calcitonin (hCT)) does the source give for “hCT A2: benzyl-functionalized human calcitonin with two methylene spacers between the terminal amine and the benzyl ring” here?
Answer: at least 40 h

Question: What about the stabilization against aggregation (Human calcitonin (hCT)) of the same substance?
Answer: resistance to aggregation

Question: And the aggregation behavior alone (Human calcitonin (hCT))?
Answer: rapid aggregation
